Source: patent US20240279281A1, “Peptide Inhibitors of Interleukin-23 Receptor” (Janssen Pharmaceutica NV, priority 2023, published 2024)
Starred links: 1 amine or outer side, 2 acyl side, 3 side chain; linkers in the order of their positions; H or OH if unused. Positions of bridges follow the written chain, without caps; N, C: chain ends. Non-standard residues stand in square brackets, D forms with d. No end group written: not given here. X1 = 3‑(7-(3-acetamidophenyl)-1H-indol-3-yl)‑2‑aminopropanoic acid, CC(=O)Nc1cccc(-c2cccc3c(CC(N[*:1])C(=O)[*:2])c[nH]c23)c1; X7 = 2‑amino‑3‑(5-methylpyridin-3-yl)propanoic acid, Cc1cncc(CC(N[*:1])C(=O)[*:2])c1; Trp(7-Me) = Cc1cccc2c(C[C@H](N)C(=O)O)c[nH]c12; 3Pal = N[C@@H](Cc1cccnc1)C(=O)O; Lipidated = not defined here; NMeK = CN[C@@H](CCCCN)C(=O)O; Pen = CC(C)(S)[C@H](N)C(=O)O; αMeC = C[C@](N)(CS)C(=O)O; lipid = not defined here; Thp = NC1(C(=O)O)CCOCC1; Abu = CC[C@H](N)C(=O)O; Ava = NCCCCC(=O)O; Sar = CNCC(=O)O

Target: T1, interleukin-23 receptor (IL-23R), Q5VWK5
T1 chain: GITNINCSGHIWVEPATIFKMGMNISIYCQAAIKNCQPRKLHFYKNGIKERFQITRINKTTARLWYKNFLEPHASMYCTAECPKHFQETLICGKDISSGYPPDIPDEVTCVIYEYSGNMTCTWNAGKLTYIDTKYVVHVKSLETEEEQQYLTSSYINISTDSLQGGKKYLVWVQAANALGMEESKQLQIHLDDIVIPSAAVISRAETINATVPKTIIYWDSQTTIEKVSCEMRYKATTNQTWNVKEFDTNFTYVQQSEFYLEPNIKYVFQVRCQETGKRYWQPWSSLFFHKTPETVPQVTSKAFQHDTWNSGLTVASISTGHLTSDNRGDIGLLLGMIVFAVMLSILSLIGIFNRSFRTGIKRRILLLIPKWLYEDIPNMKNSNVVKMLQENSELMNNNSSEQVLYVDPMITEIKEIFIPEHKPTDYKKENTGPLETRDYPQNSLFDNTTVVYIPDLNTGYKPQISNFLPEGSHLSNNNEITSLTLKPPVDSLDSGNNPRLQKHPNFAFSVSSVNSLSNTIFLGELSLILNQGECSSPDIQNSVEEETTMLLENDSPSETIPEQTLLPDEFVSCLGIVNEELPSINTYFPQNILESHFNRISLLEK
Experiment: cell-based or functional assay

| Binder | IL23R Reporter Assay IC50 | PBMC pSTAT3 IC50 |
| --- | --- | --- |
| [(R)‑3‑carboxy‑2‑(4-(((R)-5-carboxy-5-hydrazineylpentyl)amino)-4-oxobutanamido)‑N,N,N‑trimethylpropan‑1‑aminium][Pen]NT[Trp(7-Me)]K(Ac)[Pen][2‑amino‑3‑(4-(2-aminoethoxy)phenyl)propanoic acid][2‑amino‑3‑(6-hydroxynaphthalen-2-yl)propanoic acid][Thp]EN[3Pal][NMeK](lipid) (disulfide 2-7 (inferred); ends not checked; also: X14: lipidated N-methyl-lysine, lipid and methyl place not given here) [SEQ ID NO: 167] | > 100 nM | < 1 nM |
| RCNT[X1]K(Ac)[αMeC][2‑amino‑3‑(4-(2-aminoethoxy)phenyl)propanoic acid][2‑amino‑3‑(6-hydroxynaphthalen-2-yl)propanoic acid][Thp]EN[3Pal][Sar] (ends and bridges not checked) [SEQ ID NO: 2] | < 10 nM | – |
| [Ava][Abu]NT[Trp(7-Me)]K(Ac)C[2‑amino‑3‑(4-(2-aminoethoxy)phenyl)propanoic acid][2‑amino‑3‑(6-hydroxynaphthalen-2-yl)propanoic acid][Thp]EN[3Pal][Sar] (ends and bridges not checked) [SEQ ID NO: 171] | < 10 nM | < 0.01 nM |
| [(R)‑3‑carboxy‑2‑(4-(((R)-5-carboxy-5-hydrazineylpentyl)amino)-4-oxobutanamido)‑N,N,N‑trimethylpropan‑1‑aminium][Pen]NT[Trp(7-Me)]K(Ac)[Pen][2‑amino‑3‑(4-(2-aminoethoxy)phenyl)propanoic acid][2‑amino‑3‑(6-hydroxynaphthalen-2-yl)propanoic acid][Thp]EN[3Pal][NMeK](lipid) (disulfide 2-7 (inferred); not fully specified; ends not checked) [SEQ ID NO: 168] | > 100 nM | < 1 nM |
| [Pen]NT[Trp(7-Me)]K(lipid)[Pen][2‑amino‑3‑(4-(2-aminoethoxy)phenyl)propanoic acid][2‑amino‑3‑(6-hydroxynaphthalen-2-yl)propanoic acid][Thp]K(Ac)N[3Pal][Sar] (disulfide 1-6 (inferred); ends not checked; also: K5 lipidated, lipid not given here) [SEQ ID NO: 178] | > 100 nM | > 1 nM |
| R[Pen]ET[X1]K(Ac)[Pen][2‑amino‑3‑(4-(2-aminoethoxy)phenyl)propanoic acid][2‑amino‑3‑(6-hydroxynaphthalen-2-yl)propanoic acid][Thp]EN[3Pal][Sar] (disulfide 2-7 (inferred); ends not checked) [SEQ ID NO: 157] | < 10 nM | < 0.01 nM |
| [Pen]NT[X1]K[Pen][2‑amino‑3‑(4-(2-aminoethoxy)phenyl)propanoic acid][2‑amino‑3‑(6-hydroxynaphthalen-2-yl)propanoic acid][Thp]K(Ac)N[3Pal][Sar] (disulfide 1-6 (inferred); ends not checked; also: Lys5: lipidated lysine, lipid not given here) [SEQ ID NO: 152] | > 100 nM | < 1 nM |
| R[Pen]ET[X1]K(Ac)[Pen][2‑amino‑3‑(4-(2-aminoethoxy)phenyl)propanoic acid][2‑amino‑3‑(6-hydroxynaphthalen-2-yl)propanoic acid][Thp]EN[3Pal][Sar] (disulfide 2-7 (inferred); ends not checked) [SEQ ID NO: 158] | < 10 nM | < 0.01 nM |
| [Pen]NT[Trp(7-Me)]K(lipid)[Pen][5‑(4-(2-amino-2-carboxyethyl)phenoxy)‑N,N,N‑trimethylpentan‑1‑aminium][2‑amino‑3‑(6-hydroxynaphthalen-2-yl)propanoic acid][Thp]K(Ac)N[3Pal][Sar] (disulfide 1-6 (inferred); ends not checked; also: K5 lipidated lysine, lipid not given here) [SEQ ID NO: 183] | > 100 nM | < 1 nM |
| [Pen]NT[X1]K(Ac)[Pen][5‑(4-(2-amino-2-carboxyethyl)phenoxy)‑N,N,N‑trimethylpentan‑1‑aminium][2‑amino‑3‑(6-hydroxynaphthalen-2-yl)propanoic acid][Thp]EN[X7][Sar] (ends and bridges not checked) [SEQ ID NO: 22] | < 10 nM | < 0.01 nM |
| R[Pen]NT[X1]K[Pen][2‑amino‑3‑(4-(2-aminoethoxy)phenyl)propanoic acid][2‑amino‑3‑(6-hydroxynaphthalen-2-yl)propanoic acid][Thp]EN[3Pal][Sar] (disulfide 2-7 (inferred); ends not checked; also: K6: lipidated lysine, lipid not given here) [SEQ ID NO: 154] | > 100 nM | < 1 nM |
| R[Pen]NT[X1]K(Ac)[Pen][5‑(4-(2-amino-2-carboxyethyl)phenoxy)‑N,N,N‑trimethylpentan‑1‑aminium][2‑amino‑3‑(6-hydroxynaphthalen-2-yl)propanoic acid][Thp]EN[X7][Sar] (ends and bridges not checked) [SEQ ID NO: 20] | < 10 nM | < 0.1 nM |
| [Pen]NT[Trp(7-Me)]K(Ac)[Pen][2‑amino‑3‑(4-(2-aminoethoxy)phenyl)propanoic acid][2‑amino‑3‑(6-hydroxynaphthalen-2-yl)propanoic acid][Thp]K(lipid)N[3Pal][Sar] (disulfide 1-6 (inferred); ends not checked; also: K10 lipidated, lipid not given here) [SEQ ID NO: 177] | > 100 nM | > 1 nM |
| [Ava][Abu]NTWQC[2‑amino‑3‑(4-(2-aminoethoxy)phenyl)propanoic acid][2‑amino‑3‑(6-hydroxynaphthalen-2-yl)propanoic acid][Thp]EN[3Pal][Sar] (ends and bridges not checked) [SEQ ID NO: 172] | < 10 nM | < 0.01 nM |
